Results from publication PMC4498904, “Mutagenesis Study Reveals the Rim of Catalytic Entry Site of HDAC4 and -5 as the Major Binding Surface of SMRT Corepressor” (PLoS ONE, 2015).

B1: KGC-HDAC5c (C-terminal portion of Kusabira Green protein fused with HDAC5c), wild type (domain or fragment, human, UniProt Q9UQL6 680-1087, looked up)
chain: LFTTGVVYDTFMLKHQCMCGNTHVHPEHAGRIQSIWSRLQETGLLSKCERIRGRKATLDEIQTVHSEYHTLLYGTSPLNRQKLDSKKLLGPISQKMYAVLPCGGIGVDSDTVWNEMHSSSAVRMAVGCLLELAFKVAAGELKNGFAIIRPPGHHAEESTAMGFCFFNSVAITAKLLQQKLNVGKVLIVDWDIHHGNGTQQAFYNDPSVLYISLHRYDNGNFFPGSGAPEEVGGGPGVGYNVNVAWTGGVDPPIGDVEYLTAFRTVVMPIAHEFSPDVVLVSAGFDAVEGHLSPLGGYSVTARCFGHLTRQLMTLAGGRVVLALEGGHDLTAICDASEACVSALLSVELQPLDEAVLQQKPNINAVATLEKVIEIQSKHWSCVQKFAAGLGRSLREAQAGETEEAETVS
notes: human HDAC5 catalytic domain, amino acids 680 to 1087; also called KGC-MC-HDAC5c; source: HEK293, transfected, in cells or lysate
B2: KGC-HDAC4c (C-terminal portion of Kusabira Green protein fused with HDAC4c), wild type (domain or fragment, human, UniProt P56524 650-1055, looked up)
chain: PRFTTGLVYDTLMLKHQCTCGSSSSHPEHAGRIQSIWSRLQETGLRGKCECIRGRKATLEELQTVHSEAHTLLYGTNPLNRQKLDSKKLLGSLASVFVRLPCGGVGVDSDTIWNEVHSAGAARLAVGCVVELVFKVATGELKNGFAVVRPPGHHAEESTPMGFCYFNSVAVAAKLLQQRLSVSKILIVDWDVHHGNGTQQAFYSDPSVLYMSLHRYDDGNFFPGSGAPDEVGTGPGVGFNVNMAFTGGLDPPMGDAEYLAAFRTVVMPIASEFAPDVVLVSSGFDAVEGHPTPLGGYNLSARCFGYLTKQLMGLAGGRIVLALEGGHDLTAICDASEACVSALLGNELDPLPEKVLQQRPNANAVRSMEKVMEIHSKYWRCLQRTTSTAGRSLIEAQTCENEEAET
notes: also called KGC-MC-HDAC4c; source: HEK293, transfected, in cells or lysate
B3: Human HDAC3 (enzyme, UniProt O15379 1-428, looked up)
chain: MAKTVAYFYDPDVGNFHYGAGHPMKPHRLALTHSLVLHYGLYKKMIVFKPYQASQHDMCRFHSEDYIDFLQRVSPTNMQGFTKSLNAFNVGDDCPVFPGLFEFCSRYTGASLQGATQLNNKICDIAINWAGGLHHAKKFEASGFCYVNDIVIGILELLKYHPRVLYIDIDIHHGDGVQEAFYLTDRVMTVSFHKYGNYFFPGTGDMYEVGAESGRYYCLNVPLRDGIDDQSYKHLFQPVINQVVDFYQPTCIVLQCGADSLGCDRLGCFNLSIRGHGECVEYVKSFNIPLLVLGGGGYTVRNVARCWTYETSLLVEEAISEELPYSEYFEYFAPDFTLHPDVSTRIENQNSRQYLDQIRQTIFENLKMLNHAPSVQIHDVPADLLTYDRTDEADAEERGPEENYSRPEAPNEFYDGDHDNDKESDVEI

Tests used:
[1] = target: T1, KGN-SRD3c (N-terminal portion of Kusabira Green protein fused with SRD3c) (human, UniProt Q9Y618 1281-1504); assay: split reporter (BiFC, NanoBiT); quantitative BiFC (Kusabira Green, Fluo-Chase kit): KGN-SRD3c and KGC-HDAC coexpressed in HEK293, 48 h; fluorescence of cell lysates by spectrophotometer (ex 494 nm, em 538 nm); settings: partners not purified
T1 construct: human SMRT, SRD3c region, amino acid 1281 to 1504; The methods say that KGN-MC-SRD3c was made in the KGC-MC vector; also called KGN-MC-SRD3c; source: HEK293, transfected, in cells or lysate
T1 sequence (Q9Y618 1281-1504): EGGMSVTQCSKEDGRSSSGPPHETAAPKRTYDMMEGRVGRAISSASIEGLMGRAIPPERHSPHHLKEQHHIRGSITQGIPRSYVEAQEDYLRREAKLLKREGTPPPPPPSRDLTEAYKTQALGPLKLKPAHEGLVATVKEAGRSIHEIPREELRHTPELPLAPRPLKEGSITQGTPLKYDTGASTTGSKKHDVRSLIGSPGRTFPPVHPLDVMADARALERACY

[2] = target: HA-HDAC4c, wild type, expressed in HEK293 cells (human, UniProt P56524 650-1055); assay: cell-based or functional assay

Row | Binder | fold increase of the BiFC fluorescent signal over the KGC empty vector [1] [fold] | fold repression of a Gal4-tk-luciferase reporter by Gal4N-fused wild-type HDAC4c (50 and 100 ng plasmid) in HEK293 cells; endogenous SMRT-HDAC3 complex [2] [fold]
1 | B1 | ~2 | –
2 | B2 | ~2 | –
3 | B3 | – | 7
